Test results taken from the supplement of paper PMC9170038.

System: MS2 coat protein
Experiment: apparent KD of MS2 coat protein; designed switch direction (-1 OFF switch, 1 ON switch): 1; higher = weaker reporter binding
How it was run: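 SNAP-549-labelled MS2 coat protein was titrated, doubling from 0.7 or 1.5 nM to 3 µM, over designed RNA switches transcribed on Illumina chips by stalled E. coli RNA polymerase. Runs were done without input, with 200 uM small-molecule ligand, or with an oligonucleotide input. Apparent KD is the per-design median over clusters of curve-fitted normalised fluorescence.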

[1] = input ligand: microRNA oligo, concentration not stated
[2] = Eterna round: R95, input ligand: FMN 200 uM
[3] = Eterna round: R95, input ligand: microRNA oligo, concentration not stated
[4] = Eterna round: R95, input ligand: none

Row | Sequence | apparent KD of MS2 coat protein (input ligand: FMN 200 uM) [nM] | apparent KD of MS2 coat protein [1] [nM] | apparent KD of MS2 coat protein (input ligand: none) [nM] | apparent KD of MS2 coat protein [2] [nM] | apparent KD of MS2 coat protein [3] [nM] | apparent KD of MS2 coat protein [4] [nM]
1 | GAGCCAGUCCGAGGAUAUUCAUAUUAAAACAUGAGGAUCACCCAUGUAGGCUCAGAAGAGCCUUGGGAGAAGGCGGACUGGCUC [Xeonanisa] (Eterna round: R96, puzzle: Same State NG 2) | 23.3 | 214 | 366 | – | – | –
2 | CGUCGUUUGCUAGGAUAUCGCUAUACAUGAGGAUCACCCAUGUUUACCACGCUGGUUUUUCAUACCGAGAAGGAGUCUGAUGUU [salish99_SSNG02_r04_020] (Eterna round: R96, puzzle: Same State NG 2) | 28.8 | 24.8 | 33 | – | – | –
3 | AGUAUACAUGAGGAUCACCCAUGUCAACGUAGUCGAGGAUAUGGGCAGCCGUGAGGCGUACCAGAAGGCGAAGAGA [Mat - Same State 1 - Mod of JL - D5] (puzzle: Same State 1) | – | – | – | 24.5 | 50.5 | 68.6
4 | AAUUAAGAUUAAGGAUAUCACGUCGUUUAGACGUGAGAAGGUGAUCAUAACAUGAGGAUCACCCAUGUAUUACAUGAAUUAAUU [SSNG1/3-B3] (Eterna round: R96, puzzle: Same State NG 1) | 1040 | 284 | 1190 | – | – | –
5 | GACUAUCUAUCUCAGGAUAUCAUGUCAAAGACAUGAGGAUCACCCAUGUACCAGGAAACUGGUUAUGAGAAGGGAGAUAGAUAGG [Mat - Same State 2 - Mod - D43] (puzzle: Same State 2) | – | – | – | 81.1 | 26.3 | 38.8
6 | CUUCUUCCUUUUACAUGAGGAUCACCCAUGUUUUCAUAUUGAGAGGAUAUCGUAUUUGGAAACAUCGAGAAGGCUCAUUUGUAU [JR_SSNG3_Sub074] (Eterna round: R96, puzzle: Same State NG 3) | 78.6 | 98.6 | 223 | – | – | –
7 | AGGCCAUCAGGAGGAUAUGGCACCUUAUUGGUGCCAGAAGGUCUAACAUGAGGAUCACCCAUGUGGGUGUGGUCGAAAGACCAC [Fiskers NG1(ss) - 5] (Eterna round: R96, puzzle: Same State NG 1) | 99.9 | 71.2 | 98 | – | – | –
8 | AGCGCGAUCUCGCAGGAUAUCCACAUUCCUACAUGAGGAUCACCCAUGUCGCUGCAGGAUAUUAGGGAGAAGGGUGAUGUCGCGC [Arxeinor] (puzzle: Same State 2) | – | – | – | 21.4 | 32.6 | 34.8
9 | GGAGGACAUGAGGAUCACCCAUGUGGAUGAACGCUAGGAUAUGCGUGCAGGAAGAGUGGAGCAGAAGGAGUGGGAU [JR_SS1_Sub047] (puzzle: Same State 1) | – | – | – | – | 19.1 | –
10 | AUAAGGCAAGCUUUUUUCUCGUAGUGUAAACAUGAGGAUCACCCAUGUGCCCACCCUGGAUCUUUGGAUCGCAGAAC [Sobiisarre] (puzzle: Sensor for hsa-mir-208a) | – | – | – | 20.3 | 15.2 | 22.7
11 | AACGUGGGCUAGCAGGAUAUACUGCGAGUAACAUGAGGAUCACCCAUGUUGUCCCGCAAGACAAUGUAGAAGGGCUGAUACCGCG [Atatlaor] (puzzle: Same State 2) | – | – | – | 18.1 | 28.4 | 26.5
12 | CGUCCAGCCUGAGCUGGACAAAAGCAUGUACAUGAGGAUCACCCAUGUUCAUGUACAAGCUUUUUGCUCGUCUUACG [salish99_208a_r3_093x] (puzzle: Sensor for hsa-mir-208a) | – | – | – | 507 | 16.7 | 617
13 | GUGGUGUAGAUACAGGAUAUGUUGCUCGUAACAUGAGGAUCACCCAUGUAUCUAUGAGAAUAAAUGCAGAAGGGUGCACACCACU [Mat - Same State 2 - Mod of UCT - D74] (puzzle: Same State 2) | – | – | – | 24.7 | 467 | 639
14 | AUGGUGCAGGUACAGGAUAUGUUGCUCGUAACAUGAGGAUCACCCAUGUACCUAUGAGAAUAAAUGCAGAAGGGUGCACACCACG [Mat - Same State 2 - Mod of UCT - D92] (puzzle: Same State 2) | – | – | – | 57 | 3220 | 156
15 | AGCCGAGACACAGGAUAUAGAUGUCUACAUGAGGAUCACCCAUGUAGCAACACGUGGUAGUGAUUCUAGAAGGGUGCUCGGCGC [Omei SS(NG)2 Cv10] (Eterna round: R96, puzzle: Same State NG 2) | 13.1 | 20.5 | 28.7 | – | – | –
16 | GGAAUGUGAUGUUACAUGAGGAUCACCCAUGUAGUGACAACUAAGGAUAUCUGAAAAGAAGGAGAGGAGAAGGUAGGAUCACAA [AK SSNG3-V2-15] (Eterna round: R96, puzzle: Same State NG 3) | 30.8 | 39.2 | 58.9 | – | – | –

Row | Sequence | apparent KD of MS2 coat protein (input ligand: FMN 200 uM) [nM] | apparent KD of MS2 coat protein [1] [nM] | apparent KD of MS2 coat protein (input ligand: none) [nM] | apparent KD of MS2 coat protein [2] [nM] | apparent KD of MS2 coat protein [3] [nM] | apparent KD of MS2 coat protein [4] [nM]
17 | GUGGAGGGUUGAGGAUAUUGAAUACAUAUGUUUAACAUGAGGAUCACCCAUGUGGGUUGCGGUAUCGAGAAGGUAAAUUGCUGG [salish99_SSNG2_r04_037] (Eterna round: R96, puzzle: Same State NG 2) | – | 72.1 | – | – | – | –
18 | AGCUAUCGAAAACGAUAGCAAAAGCAUGUACAUGAGGAUCACCCAUGUCAUGUGCAAGCUUUUUGCUCGUCUUAAAA [Zipper 23 - 4] (puzzle: Sensor for hsa-mir-208a) | – | – | – | 163 | 10.7 | 208
19 | GGAGAGAGAGCGCAGGAUAUUCGAGGAGAAACAUGAGGAUCACCCAUGUGAGAGAGAGAGGAGAAGGAGAAGGGUGAGAGAGAGG [Altered State 2-14 - Jieux - Same State 2] (puzzle: Same State 2) | – | – | – | 147 | 34.9 | 32.6
20 | GCAGGACGGUAAAACAUCUCACAUGAGGAUCACCCAUGUUGUGAGGAUAUGGAUCCUAAUUGGAUCCAGAAGGCACGGUCCUGC [Fiskers NG3ss - 30] (Eterna round: R96, puzzle: Same State NG 3) | 24.9 | 17.7 | 27.8 | – | – | –
21 | AUAAAACAUGAGGAUCACCCAUGUCAACAAAGUCGAGGAUAUGGGCAAAUAAAAUUAGAACCAGAAGGCGAAUAAU [salish99_ss1_r3_020] (puzzle: Same State 1) | – | – | – | 34.4 | 330 | 379
22 | UUUAGUUGCGGGCAGGAUAUGUGUUAAAAUACAUGAGGAUCACCCAUGUGCGGGUAUAACACCCGACAGAAGGGCCAAUCGCGAC [Laonerce - 2] (Eterna round: R96, puzzle: Same State 2) | 13.5 | 44.2 | 54.9 | – | – | –
23 | GUUACAUGAGGAUCACCCAUGUAUGUGUGGGAGUAAGUGUCUUAGGAUAUCUAGUAUUUAACUUAAGAGAAGGAAGAUUGUUGU [JMF's solution 63] (Eterna round: R96, puzzle: Same State NG 3) | 142 | 95.8 | 105 | – | – | –
24 | GCUACCAUUGAAGCCAACAUGAGGAUCACCCAUGUAUGUUGGUAGGAUAUCGUUUGCUUUGCAAACGAGAAGGGCUAAGGUAGC [JL SSNG3 1.27] (Eterna round: R96, puzzle: Same State NG 3) | 72.2 | 57.4 | 77.1 | – | – | –
25 | GUGGUGUAGAUACAGGAUAUGUUGCUCGUAACAUGAGGAUCACCCAUGUAUCUAUGAGAAUAAAUGCAGAAGGGUGCACACCACU [Mat - Same State 2 - Mod of UCT - D74] (Eterna round: R96, puzzle: Same State 2) | 26.1 | 197 | 489 | – | – | –
26 | AUUGCUUUCGCAGGAUAUGAUGCGAAAAUUGCGUCAGAAGGGUGGAGUAUCUCAUUGCAACAGGACAUGAGGAUCACCCAUGUC [SameState NG1 #88] (Eterna round: R96, puzzle: Same State NG 1) | 56.7 | 140 | 248 | – | – | –
27 | GAGUGGUAAAGAGGAUAUGCAUUGUUAUUCACUGUAGAAGGUUUUAACAUGAGGAUCACCCAUGUAGGACUAUUCCUGUGUUUU [Parity 61 - Jieux - Same State NG 1] (Eterna round: R96, puzzle: Same State NG 1) | 12.4 | 12.4 | 18.8 | – | – | –
28 | GCCAACGCAUGAGGAUAUGGCACCUUAUUGGUGCCAGAAGGCGUGUGUAUUCACAUGAGGAUCACCCAUGUAUUAUAGUUGGCA [Fiskers NG1ss - 16] (Eterna round: R96, puzzle: Same State NG 1) | 24.1 | 169 | 189 | – | – | –
29 | UAGUAUCAACGAGGAUAUAAUAUGUUCAAUUUUUUAUAUUGUUUACAUGAGGAUCACCCAUGUUAUUAGAAGGCGUAUGGGAUU [JR_SSNG2_Sub083] (Eterna round: R96, puzzle: Same State NG 2) | – | 47.2 | – | – | – | –
30 | ACAUGAGAGAAAGGAUAUCUUGUACCUACAUGUGACAUGAGGAUCACCCAUGUGGUAAGUAUGACGGAGAAGGUUCAGAUAUGU [Equivalance 72 - Jieux - Same State NG 2] (Eterna round: R96, puzzle: Same State NG 2) | 77.1 | 125 | 154 | – | – | –
31 | UGUACUUUCAUAGGAUAUCAUGCGAAAAUUGCGUGAGAAGGGUGAAUACUGUCUUUCUAAGAGUACAUGAGGAUCACCCAUGUA [SameState NG1 #63] (Eterna round: R96, puzzle: Same State NG 1) | 77.3 | 80.2 | 67.5 | – | – | –
